Test results reported in PMC10838023 (Molecular microbiology, 2023).

T1: GfcR-StrepII (Haloferax volcanii (expressed in H26), UniProt Q8NKQ2 1-210)
T1 sequence: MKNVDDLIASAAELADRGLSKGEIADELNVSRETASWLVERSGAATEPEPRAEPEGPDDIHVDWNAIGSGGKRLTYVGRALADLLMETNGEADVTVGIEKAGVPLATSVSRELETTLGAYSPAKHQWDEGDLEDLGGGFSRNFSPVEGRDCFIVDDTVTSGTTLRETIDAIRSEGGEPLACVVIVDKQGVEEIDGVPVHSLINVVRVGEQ

B1: GfcR-StrepII (glucose and fructose catabolism regulator GfcR of Haloferax volcanii with a C-terminal StrepII tag) (natural protein, UniProt Q8NKQ2 1-210, looked up)
chain: T1 sequence
B2: PptfC (dsDNA)
DNA 1: GGACCTCGAAGACGTGCTGACGAACGAAACGCACGTCGAGGTGACGACCGTTCGGACCCGGTGACTCTCGGATGAACGTTTGTTAACGACCGAAACACGCAGTAACGTTCATATTCGAAAGGGTTTTTGAGCACATTTGCGTACGTTCTTTCGTAGGGGTGGCAACACTATG
DNA 2: CATAGTGTTGCCACCCCTACGAAAGAACGTACGCAAATGTGCTCAAAAACCCTTTCGAATATGAACGTTACTGCGTGTTTCGGTCGTTAACAAACGTTCATCCGAGAGTCACCGGGTCCGAACGGTCGTCACCTCGACGTGCGTTTCGTTCGTCAGCACGTCTTCGAGGTCC

Assays:
SEC = target: the molecule itself; assay: SEC
GfcR-StrepII = target: T1, GfcR-StrepII; assay: EMSA

Binder	stoichiometry N (SEC)	binding result (GfcR-StrepII)
B1	4	–
B2	–	binds
